# Assay results reported in US20040253577A1 (SCHERING, published 2004).
# Target: the molecule itself
# Assay: size exclusion chromatography (Superdex 75), self-association
protein,measurement,value
"HCV NS3 helicase subdomain I (181-324,R257E) mutant (enzyme, also called subdomain I mutant; product of pNS3(181-324,R257E)) SPVFTDNSSPPAVPQSFQVAHLHAPTGSGKSTKVPAAYAAQGYKVLVLNPSVAATLGFGAYMSKAHGVDPNIRTGVETITTGSPITYSTYGKFLADGGCSGGAYDIIICDECHSTDATSILGIGTVLDQAETAGARLVVLATAT",binding result,no binding (tested: 6 mg/ml)
